The values below come from IntAct's records for PubMed 19850040.

First the molecules themselves.
B1: Post-transcriptional regulator MTA (Human herpesvirus 8), Q2HR75 (parent)
chain: MVQAMIDMDIMKGILEDSVSSSEFDESRDDETDAPTLEDEQLSEPAEPPADERIRGTQSAQGIPPPLGRIPKKSQGRSQLRSEIQFCSPLSRPRSPSPVNRYGKKIKFGTAGQNTRPPPEKRPRRRPRDRLQYGRTTRGGQCRAAPKRATRRPQVNCQRQDDDVRQGVSDAVKKLRLPASMIIDGESPRFDDSIIPRHHGACFNVFIPAPPSHVPEVFTDRDITALIRAGGKDDELINKKISAKKIDHLHRQMLSFVTSRHNQAYWVSCRRETAAAGGLQTLGAFVEEQMTWAQTVVRHGGWFDEKDIDIILDTAIFVCNAFVTRFRLLHLSCVFDKQSELALIKQVAYLVAMGNRLVEACNLLGEVKLNFRGGLLLAFVLTIPGMQSRRSISARGQELFRTLLEYYRPGDVMGLLNVIVMEHHSLCRNSECAAATRAAMGSAKFNKGLFFYPLS

The variants in the first experiment derive from B1. The following applies: with thoc4_human ALYREF.
As for K121M, the “effect of a mutation on the interaction” value was “disrupting interaction”. On to R151D, for which the “effect of a mutation on the interaction” value is given as “disrupting interaction”. The same measure, in the same setting: for K147E the value was “disrupting interaction”; for R124Q, “disrupting interaction”. On the same count and under the same terms, the entry for R128S is “disrupting interaction”; for R130G it is “disrupting interaction”. Take R152G: the “effect of a mutation on the interaction” value is on record as “disrupting interaction”. With R122S, the “effect of a mutation on the interaction” value is listed as “disrupting interaction”. As for R126E, the “effect of a mutation on the interaction” value is recorded as “disrupting interaction”. Regarding R125G, the “effect of a mutation on the interaction” value is on record as “disrupting interaction”.

R143D: the “effect of a mutation on the interaction” value is reported as “disrupting interaction”. With R148Q, the “effect of a mutation on the interaction” value is recorded as “disrupting interaction”.

The variants in another experiment derive from B1. The following applies: with thoc4_human ALYREF. The source holds these as a separate data set.
R101S: the “effect of a mutation on the interaction” value was “disrupting interaction”. In the case of K104N, the “effect of a mutation on the interaction” value is reported as “disrupting interaction”. With K107E, the “effect of a mutation on the interaction” value is “disrupting interaction”. Consider K105N, for which the “effect of a mutation on the interaction” value is recorded as “disrupting interaction”.
